{
  "source": "patent US20130108609A1",
  "target": "Snapin, endogenous, in LNCaP cells (human) (UniProt O95295)",
  "sequence (O95295 2-136)": "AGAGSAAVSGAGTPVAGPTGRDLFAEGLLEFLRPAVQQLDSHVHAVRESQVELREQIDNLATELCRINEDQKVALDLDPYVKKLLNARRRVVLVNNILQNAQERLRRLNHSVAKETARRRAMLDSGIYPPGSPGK",
  "assay": "cell-based or functional assay",
  "data": [
    {"substance": "human TMPAP stably expressed in LNCaP cells (LNCaP pMX TMPAP) (enzyme)", "values": [
      {"measurement": "Pearson's correlation coefficient of co-localization (double immunofluorescence, cell lamellipodia only)", "value": 0.68},
      {"measurement": "Pearson's correlation coefficient of co-localization (double immunofluorescence, whole cell)", "value": 0.485}
    ]}
  ]
}
